Literature values as cited in article PMC3158961.
Where two headings read alike, the source gives them in different places. Values belong to the substance of their own block, whether it stands above or below them.

Legend:
CEP55 (Homo sapiens) [1] = target: CEP55 (Homo sapiens) (UniProt Q53EZ4)
CEP55 (Homo sapiens) [2] = target: CEP55 (Homo sapiens) (UniProt Q53EZ4); remark: listed apart in the source
Nedd4 WW3 = Nedd4 WW3 (UniProt P46934)
Sequence of UniProt P46934 (P46934 840-873): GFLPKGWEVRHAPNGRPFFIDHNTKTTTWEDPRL

Sequence of UniProt Q53EZ4 (Q53EZ4 whole entry): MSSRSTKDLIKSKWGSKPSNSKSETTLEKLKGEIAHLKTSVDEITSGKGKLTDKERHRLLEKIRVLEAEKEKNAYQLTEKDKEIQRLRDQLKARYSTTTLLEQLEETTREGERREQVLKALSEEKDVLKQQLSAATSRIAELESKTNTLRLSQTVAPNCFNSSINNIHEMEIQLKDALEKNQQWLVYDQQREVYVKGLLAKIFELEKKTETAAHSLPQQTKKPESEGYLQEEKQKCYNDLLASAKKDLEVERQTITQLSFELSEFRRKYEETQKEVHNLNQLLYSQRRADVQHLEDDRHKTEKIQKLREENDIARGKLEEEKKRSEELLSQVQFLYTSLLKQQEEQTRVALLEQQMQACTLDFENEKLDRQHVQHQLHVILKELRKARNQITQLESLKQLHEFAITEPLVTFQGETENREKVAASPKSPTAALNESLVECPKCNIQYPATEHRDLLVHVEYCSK

Kd (CEP55 (Homo sapiens) [1]): 1000 nM
Substance: TSG101 GPPX3Y peptide (from UniProt Q99816)

Kd (CEP55 (Homo sapiens) [2]): 1000 nM
Substance: ALIX GPPX3Y peptide (from UniProt Q8WUM4)

Kd (Nedd4 WW3): 20000 nM
Substance: ENaC β subunit PPXY peptide (from UniProt P51168)
